Assay results: article PMC9091212

Biological target: TGFβRII (UniProt P37173)
Test: anti-FLAG IP, TGFβRII western blot
Settings: reference: wild-type TGFβRI-FLAG; sites Y182

- binding against the reference: weaker
Substance: TGFβRI (from UniProt P36897) Y182F
